Publication PMC7041945, “Misfolded proteins bind and activate death receptor 5 to trigger apoptosis during unresolved endoplasmic reticulum stress” (eLife, 2020)

System: CHOP, BiP, and DR5 mRNA in HCT116 cells
Assay: qPCR of UPR target transcripts (CHOP, BiP, DR5)
Assay type: cell-based, Homo sapiens
Conditions: for avg. fold induction relative to empty traffo, BiP / avg. fold induction relative to empty traffo, CHOP / avg. fold induction relative to empty traffo, DR5 total: norm to GAPDH; for 2^-(deltaCq) BiP / 2^-(deltaCq) CHOP / 2^-(deltaCq) DR5 total: vs GAPDH
Procedure: Cells were grown in 6-well plates and harvested with 0.5 ml of TRIzol reagent (Life Technologies) per manufacturer’s protocol to extract RNA. For cDNA synthesis, 500 ng of total RNA was reverse transcribed with 2 μl of the SuperScript VILO master mix (Life Technologies # 11755050) in a total reaction volume of 10 μl following the manufacturer’s protocol for reaction temperature and duration. The reverse transcription product was diluted to 200 μl with 10 mM Tris-HCl pH 8.2 and used at 1:100 dilution for subsequent RT-PCR reactions.
PCR samples were prepared as described by manufacturer’s protocols from iQ SYBR Green Supermix (BioRad #17088800).
For each experiment, qRT-PCR reactions were set up in triplicate and run using a CFX96 Real Time System (Bio-Rad). Quantitation cycles were determined with CFX Manager 3.0 software (Bio-Rad) and then normalized to GAPDH as an internal control.

[1] = HCT116, pRK CHOP 31 ng, Sheet1, replicate 1

B1: pRK CHOP (protein, UniProt P35638 1-169, looked up)
DNA damage-inducible …: MAAESLPFSFGTLSSWELEAWYEDLQEVLSSDENGGTYVSPPGNEEEESKIFTTLDPASLAWLTEEEPEPAEVTSTSQSPHSPDSSQSSLAQEEEEEDQGRTRKRKQSGHSPARAGKQRMKEKEQENERKVAQLAEENERLKQEIERLTREVEATRRALIDRMVNLHQA
modifications: expression plasmid
HCT116, 31 ng
  avg. fold induction relative to empty traffo, BiP: 0.2997 fold
  avg. fold induction relative to empty traffo, CHOP: 18.7911 fold
HCT116, 31 ng, replicate 1
  fold induction relative to empty traffo, BiP: 0.28 fold
  fold induction relative to empty traffo, CHOP: 16.3851 fold
  fold induction relative to empty traffo, DR5 total: 0.9029 fold
  2^-(deltaCq) BiP: 0.02437
  2^-(deltaCq) CHOP: 0.1729
  2^-(deltaCq) DR5 total: 0.01464
HCT116, 31 ng, replicate 2
  fold induction relative to empty traffo, BiP: 0.3243 fold
  fold induction relative to empty traffo, CHOP: 19.1521 fold
  fold induction relative to empty traffo, DR5 total: 0.9212 fold
  2^-(deltaCq) BiP: 0.02822
  2^-(deltaCq) CHOP: 0.2021
  2^-(deltaCq) DR5 total: 0.01494
HCT116, 31 ng, replicate 3
  fold induction relative to empty traffo, BiP: 0.2949 fold
  fold induction relative to empty traffo, CHOP: 20.8362 fold
  fold induction relative to empty traffo, DR5 total: 2.023 fold
  2^-(deltaCq) BiP: 0.02567
  2^-(deltaCq) CHOP: 0.2199
  2^-(deltaCq) DR5 total: 0.0328
HCT116, 62 ng
  avg. fold induction relative to empty traffo, BiP: 0.334 fold
  avg. fold induction relative to empty traffo, CHOP: 50.7204 fold
  avg. fold induction relative to empty traffo, DR5 total: 0.954 fold
HCT116, 62 ng, replicate 1
  fold induction relative to empty traffo, BiP: 0.3561 fold
  fold induction relative to empty traffo, CHOP: 46.9347 fold
  fold induction relative to empty traffo, DR5 total: 0.9555 fold
  2^-(deltaCq) BiP: 0.031
  2^-(deltaCq) CHOP: 0.4954
  2^-(deltaCq) DR5 total: 0.01549
HCT116, 62 ng, replicate 2
  fold induction relative to empty traffo, BiP: 0.3335 fold
  fold induction relative to empty traffo, CHOP: 49.2833 fold
  fold induction relative to empty traffo, DR5 total: 1.032 fold
  2^-(deltaCq) BiP: 0.02903
  2^-(deltaCq) CHOP: 0.5202
  2^-(deltaCq) DR5 total: 0.01673
HCT116, 62 ng, replicate 3
  fold induction relative to empty traffo, BiP: 0.3124 fold
  fold induction relative to empty traffo, CHOP: 55.9433 fold
  fold induction relative to empty traffo, DR5 total: 0.8745 fold
  2^-(deltaCq) BiP: 0.02719
  2^-(deltaCq) CHOP: 0.5905
  2^-(deltaCq) DR5 total: 0.01418
HCT116, 125 ng
  avg. fold induction relative to empty traffo, BiP: 0.5304 fold
  avg. fold induction relative to empty traffo, CHOP: 220.701 fold
  avg. fold induction relative to empty traffo, DR5 total: 1.17 fold
HCT116, 125 ng, replicate 1
  fold induction relative to empty traffo, BiP: 0.6342 fold
  fold induction relative to empty traffo, CHOP: 230.561 fold
  fold induction relative to empty traffo, DR5 total: 1.242 fold
  2^-(deltaCq) BiP: 0.0552
  2^-(deltaCq) CHOP: 2.434
  2^-(deltaCq) DR5 total: 0.02013
HCT116, 125 ng, replicate 2
  fold induction relative to empty traffo, BiP: 0.5274 fold
  fold induction relative to empty traffo, CHOP: 173.762 fold
  fold induction relative to empty traffo, DR5 total: 1.206 fold
  2^-(deltaCq) BiP: 0.04591
  2^-(deltaCq) CHOP: 1.834
  2^-(deltaCq) DR5 total: 0.01955
HCT116, 125 ng, replicate 3
  fold induction relative to empty traffo, BiP: 0.4295 fold
  fold induction relative to empty traffo, CHOP: 257.78 fold
  fold induction relative to empty traffo, DR5 total: 1.064 fold
  2^-(deltaCq) BiP: 0.03739
  2^-(deltaCq) CHOP: 2.7208
  2^-(deltaCq) DR5 total: 0.01725
HCT116, 250 ng
  avg. fold induction relative to empty traffo, BiP: 0.5014 fold
  avg. fold induction relative to empty traffo, CHOP: 408.627 fold
  avg. fold induction relative to empty traffo, DR5 total: 0.9069 fold
HCT116, 250 ng, replicate 1
  fold induction relative to empty traffo, BiP: 0.6408 fold
  fold induction relative to empty traffo, CHOP: 391.947 fold
  fold induction relative to empty traffo, DR5 total: 0.8794 fold
  2^-(deltaCq) BiP: 0.05578
  2^-(deltaCq) CHOP: 4.1369
  2^-(deltaCq) DR5 total: 0.01426
HCT116, 250 ng, replicate 2
  fold induction relative to empty traffo, BiP: 0.4446 fold
  fold induction relative to empty traffo, CHOP: 418.188 fold
  fold induction relative to empty traffo, DR5 total: 0.9861 fold
  2^-(deltaCq) BiP: 0.0387
  2^-(deltaCq) CHOP: 4.414
  2^-(deltaCq) DR5 total: 0.01599
HCT116, 250 ng, replicate 3
  fold induction relative to empty traffo, BiP: 0.4188 fold
  fold induction relative to empty traffo, CHOP: 415.746 fold
  fold induction relative to empty traffo, DR5 total: 0.8551 fold
  2^-(deltaCq) BiP: 0.03645
  2^-(deltaCq) CHOP: 4.3881
  2^-(deltaCq) DR5 total: 0.01387
HCT116, 500 ng
  avg. fold induction relative to empty traffo, BiP: 0.5375 fold
  avg. fold induction relative to empty traffo, CHOP: 1484.73 fold
  avg. fold induction relative to empty traffo, DR5 total: 1.792 fold
HCT116, 500 ng, replicate 1
  fold induction relative to empty traffo, BiP: 0.5213 fold
  fold induction relative to empty traffo, CHOP: 1691.32 fold
  fold induction relative to empty traffo, DR5 total: 1.92 fold
  2^-(deltaCq) BiP: 0.04537
  2^-(deltaCq) CHOP: 17.8515
  2^-(deltaCq) DR5 total: 0.03114
HCT116, 500 ng, replicate 2
  fold induction relative to empty traffo, BiP: 0.6638 fold
  fold induction relative to empty traffo, CHOP: 1384.67 fold
  fold induction relative to empty traffo, DR5 total: 1.724 fold
  2^-(deltaCq) BiP: 0.05778
  2^-(deltaCq) CHOP: 14.6148
  2^-(deltaCq) DR5 total: 0.02796
HCT116, 500 ng, replicate 3
  fold induction relative to empty traffo, BiP: 0.4274 fold
  fold induction relative to empty traffo, CHOP: 1378.19 fold
  fold induction relative to empty traffo, DR5 total: 1.731 fold
  2^-(deltaCq) BiP: 0.0372
  2^-(deltaCq) CHOP: 14.5464
  2^-(deltaCq) DR5 total: 0.02807
[1]
  CHOP (qPCR CHOP, Sheet1): 16.3851
  DR5 (qPCR CHOP, Sheet1): 0.9029
  GADD34 (qPCR CHOP, Sheet1): 0.958
